# Experimental data taken from the supplement of paper PMC10724198.
# ± gives the standard deviation of the averaged measurements.
# System: Saccharomyces cerevisiae
# Experiment: protein stability index of tFT-peptide fusion (C-terminal peptide) (PSI (0-1 scale)); higher = more stable (slower turnover)
# Conditions: genetic background: wild type; temperature: 30 C
# 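Further: PSI is a weighted mean of sequencing reads over stability bins, variants kept only with over 10 reads, mCherry proximal and sfGFP distal, peptide attached via GGGS linker.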
row,Sequence,protein stability index
1,RRIFTLIARRLW,0.672 ± 0.013
2,RRKSEYAYNTKN,0.565 ± 0.036
3,RRLRWQNKIIGI,0.868 ± 0.13
4,RRLVGEEGRTHV,0.638 ± 0.05
5,RRNESHAGGRGP,0.778 ± 0.07
6,RRPAQDAEPIQP,0.661 ± 0.067
7,RRRGTYTYSLLL,0.73 ± 0.014
8,RRRKGTKNMQSK,0.727 ± 0.061
9,RRRMVYPLPPTL,0.641 ± 0.052
10,RRRPSPKASILS,0.719 ± 0.011
11,RRRSGAPVMRGS,0.645 ± 0.074
12,RRSASRQFLLNP,0.73264 ± 0.00024
13,RRSENHTEHKGD,0.712 ± 0.032
14,RRSLKIQKNMKR,0.686 ± 0.083
15,RRSPYLPRILTP,0.661 ± 0.023
16,RRSVSSRGCLFR,0.7 ± 0.008
17,RRTGTFSGLAGL,0.696 ± 0.0071
18,RRTYERRVATSR,0.691 ± 0.031
19,RRVDVRKGRLTP,0.753 ± 0.096
20,RRVKRGGARKEA,0.654 ± 0.019
21,RRVRTTKKGLTI,0.7266 ± 0.0036
22,RRYWVLSTVPVL,0.615 ± 0.028
23,RSCAGGVGAVFF,0.758 ± 0.055

row,Sequence,protein stability index
1,RSCFLSLFFFGF,0.653 ± 0.036
2,RSEIKKPIVIKT,0.576 ± 0.045
3,RSFGRVVSCSGC,0.6993 ± 0.0056
4,RSGGDGCRALSV,0.708 ± 0.064
5,RSGSVGGMECHV,0.7 ± 0.18
6,RSHPPPPVSRSP,0.651 ± 0.045
7,RSHPRQSGLRTA,0.652 ± 0.039
8,RSKDEKNKIGYK,0.683 ± 0.044
9,RSPKGKKRVGKW,0.714 ± 0.039
10,RSPPPFLSIFPL,0.745 ± 0.01
11,RSPSFLRSFPAL,0.686 ± 0.016
12,RSRGSTKLKNLI,0.817 ± 0.056
13,RSRKKKERWKTE,0.707 ± 0.015
14,RSRRPALVLSGN,0.729 ± 0.011
15,RSRRRFPPPPPI,0.672 ± 0.062
16,RSSCVRGVTLAL,0.695 ± 0.023
17,RSSEVQADRMCQ,0.668 ± 0.025
18,RSSFCGVRAWLA,0.704 ± 0.078
19,RSSKCRGQKGLG,0.687 ± 0.014
20,RSSLSGLPPLPP,0.721 ± 0.14
21,RSSPVPLSCRKG,0.66 ± 0.037
22,RSVPPSSPPPYF,0.699 ± 0.037
23,RSVWVGGVTNLG,0.657 ± 0.063

row,Sequence,protein stability index
1,RSWISGVRPSYP,0.75 ± 0.036
2,RTCPSPSAHLRL,0.741 ± 0.0085
3,RTECRCCVGEVG,0.656 ± 0.069
4,RTKIEIKNRENI,0.774 ± 0.12
5,RTKMKERTCEEG,0.697 ± 0.02
6,RTLNILCGGALR,0.691 ± 0.049
7,RTLPFPHAGLLF,0.6816 ± 0.0061
8,RTPPCLTPLEET,0.713 ± 0.037
9,RTQRGRMGGEQG,0.762 ± 0.12
10,RTRPALPSPPPH,0.725 ± 0.022
11,RTRSKVSVSFND,0.728 ± 0.043
12,RTSKRKKSDARK,0.784 ± 0.022
13,RTTDPHNRPIRP,0.6552 ± 0.0047
14,RTWNSIESRKIK,0.706 ± 0.074
15,RVANCGDGSIAV,0.652 ± 0.053
16,RVAPITARLAPH,0.859 ± 0.12
17,RVCKALKNDNLI,0.73 ± 0.07
18,RVGGGRDVRGGG,0.723 ± 0.042
19,RVGQDGFRVAGC,0.594 ± 0.12
20,RVISIIREQEPV,0.677 ± 0.034
21,RVKFIEQASRFV,0.764 ± 0.12
22,RVPPGSPYPPLL,0.7319 ± 0.0028
23,RVPVSQHARTRN,0.6744 ± 0.0055

row,Sequence,protein stability index
1,RVQFYVGSPALR,0.69684 ± 0.00031
2,RVQLTLKGTGVT,0.629 ± 0.029
3,RVRGEHKLIGRA,0.652 ± 0.034
4,RVRQQKIFPSLD,0.7057 ± 0.0062
5,RVSACVDGHVFL,0.643 ± 0.0071
6,RVSTIEAEINLR,0.708 ± 0.012
7,RVSVFILGWFRD,0.532 ± 0.018
8,RVSVSWDDGVMV,0.652 ± 0.0088
9,RVWQGRDGTVMK,0.659 ± 0.019
10,RVYKTAYNRRTQ,0.832 ± 0.021
11,RVYYPSGVKCRL,0.671 ± 0.033
12,RWAVYDKNRETP,0.657 ± 0.05
13,RWGGVVRGCSGG,0.687 ± 0.036
14,RWGVRFWVGDSV,0.687 ± 0.017
15,RWHLCERFGGRV,0.643 ± 0.1
16,RWLEIQKRRGRI,0.643 ± 0.1
17,RWPPPPPELPPP,0.655 ± 0.039
18,RWREGWGGFSLG,0.665 ± 0.025
19,RWVRGDVFQGFC,0.693 ± 0.052
20,RYAGGHRIGFLI,0.649 ± 0.025
21,RYLDPPLPLPRT,0.6921 ± 0.0046
22,RYNRMVERALKY,0.677 ± 0.027
23,RYYKKQNWKIGL,0.663 ± 0.13

row,Sequence,protein stability index
1,SAAPVTLSRLPP,0.699 ± 0.071
2,SAAVLRWLASAG,0.683 ± 0.059
3,SAEKKRAKCERR,0.68 ± 0.01
4,SAGARIRPADAL,0.6801 ± 0.0022
5,SAGPVYAGGVAS,0.6895 ± 0.0068
6,SAIGVGGGGTGG,0.676 ± 0.0082
7,SAKARTNHAFQF,0.678 ± 0.0097
8,SALLPSPGPPAF,0.656 ± 0.089
9,SAPGIGFYTKSL,0.653 ± 0.064
10,SARWTSRIQDRS,0.652 ± 0.02
11,SASSPLPPAATG,0.652 ± 0.051
12,SAVARVGDVIAV,0.613 ± 0.059
13,SAVWWDRLDIRK,0.687 ± 0.012
14,SAWGLVLVGSWG,0.602 ± 0.011
15,SAYASCFGSESL,0.675 ± 0.05
16,SCCPVESSHSLP,0.612 ± 0.055
17,SCDLRALALLGG,0.707 ± 0.07
18,SCLGSGVSWGVW,0.731 ± 0.0053
19,SCLHRDLSDTCQ,0.66536 ± 0.00012
20,SCLVWTWVSSVL,0.573 ± 0.067
21,SCPLSARLYASL,0.675 ± 0.079
22,SCPPSARLSNTC,0.7506 ± 0.00063
23,SCPSFVWLSFPQ,0.7142 ± 0.0056

row,Sequence,protein stability index
1,SCRVVSGLAIWW,0.734 ± 0.15
2,SCSHYLPAPLPF,0.577 ± 0.0074
3,SCVDRAVGCRVS,0.6961 ± 0.0042
4,SCYTEQRVMICL,0.592 ± 0.0023
5,SDHVYHFRLTRV,0.709 ± 0.076
6,SDKGKSSVSGSN,0.678 ± 0.012
7,SDLGLHGRVPST,0.6671 ± 0.0014
8,SDPPPPPDPPSP,0.673 ± 0.032
9,SDSREAVLTEEP,0.625 ± 0.13
10,SEGRMHGLFLLN,0.544 ± 0.022
11,SELKNKKRKHAK,0.706 ± 0.034
12,SESKCRPKVSQP,0.689 ± 0.065
13,SEVRLMSVTSHS,0.7417 ± 0.0038
14,SFAPPPPPPLPS,0.686 ± 0.025
15,SFARPNTRALPT,0.656 ± 0.13
16,SFARPSFVRPFA,0.694 ± 0.017
17,SFEFSSRVFSLD,0.714 ± 0.055
18,SFFSSSRVCLGF,0.685 ± 0.11
19,SFHRICTYVLRP,0.634 ± 0.089
20,SFILPFISPLLF,0.565 ± 0.022
21,SFLLGLCHFYGS,0.718 ± 0.04
22,SFLRHSCFPSVP,0.736 ± 0.023
23,SFPHLARRLLSP,0.673 ± 0.06

row,Sequence,protein stability index
1,SFPPLRPSPPLL,0.667 ± 0.019
2,SFPPPPFPPLFL,0.722 ± 0.023
3,SFSFPFGCSSRF,0.7195 ± 0.0046
4,SFSPLHVGPSPL,0.6843 ± 0.0048
5,SFSSHPPFAPSF,0.745 ± 0.018
6,SFVFSVFGAGVD,0.778 ± 0.014
7,SFVRTLSCISIF,0.513 ± 0.053
8,SFWWCSARSFQG,0.715 ± 0.03
9,SFWWGGWGVGPD,0.73647 ± 0.0004
10,SFYFAPLLSPFA,0.597 ± 0.036
11,SGAGGGGWGGGV,0.7535 ± 0.0062
12,SGARDLVILTPW,0.713 ± 0.013
13,SGAWSGGGESGH,0.596 ± 0.058
14,SGCLGGGRGGWG,0.657 ± 0.013
15,SGCVGGSDVALS,0.721 ± 0.018
16,SGDLLLGCTLVV,0.6313 ± 0.0018
17,SGDVENQMGEES,0.717 ± 0.062
18,SGEVFEDLRAPE,0.743 ± 0.038
19,SGEVGVGHWVGG,0.6812 ± 0.0053
20,SGFKRWSDVGDY,0.6815 ± 0.0057
21,SGGADYMDPRLT,0.714 ± 0.027
22,SGGCVGLAVAGG,0.702 ± 0.056
